{
  "source": "the RNAGym collection of RNA variant scans (doi:10.1073/pnas.2313332121)",
  "parents": {"B1": {"name": "TPR 5TU (parent)", "chain": "GGAUCUUCUCGAUCUAACAAAAAAGACAAAUCUGCCACAAAGCUUGAGAGCAUCUUCGGAUGCAGAGGCGGCAGCCUUCGGUGGCGCGAUAGCGCCAACGUUCUCAACUAUGACACGCAAAACGCGUGCUCCGUUGAAUGGAGUUUAUCAUG"}},
  "note": "Variants at the floor of the assay were thinned out.",
  "data": [
    {"variants_of": "B1", "experiment": "polymerase ribozyme fitness, log enrichment relative to wild type (log ratio); higher = more active; in vitro selection for triplet polymerase activity", "summary_of_the_method": "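The heterodimeric triplet polymerase ribozyme's subunits were each mutagenized into PCR-built libraries and transcribed. Every library was selected once, in triplicate, by annealing with a biotinylated primer, the partner subunit and triplets, incubating frozen at −7 °C, gel-excising extended constructs, capturing on streptavidin beads and running RT-PCR. Input and output libraries were Illumina-sequenced, with genotypes kept only at ≥10 input reads and ≥1 read per output. Fitness, from inverse-variance-weighted replicate averages, is the base-2 logarithm of genotype enrichment over wild-type enrichment.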", "values": [
      {"variant": "C14G A24G U31A A49C A52C C54A U56A A73U A89G C99G A107C C149G", "polymerase ribozyme fitness (log ratio)": "≤ -4.2"},
      {"variant": "C14G U55A G92U", "polymerase ribozyme fitness (log ratio)": -2.92},
      {"variant": "A12U G58A C85G A106G A137U A150C", "polymerase ribozyme fitness (log ratio)": "≤ -4.2"},
      {"variant": "A12U U55A C57G C103A G128U A147C", "polymerase ribozyme fitness (log ratio)": -4.11},
      {"variant": "A12U C79U C93G C132G", "polymerase ribozyme fitness (log ratio)": "≤ -4.2"},
      {"variant": "C14G C38U C95G A106C", "polymerase ribozyme fitness (log ratio)": -4.14},
      {"variant": "C14A A17G U31A G59A C75G C95U U101G A113U A121U", "polymerase ribozyme fitness (log ratio)": "≤ -4.2"},
      {"variant": "C14G A20U U55A C85A C105U U134A", "polymerase ribozyme fitness (log ratio)": "≤ -4.2"},
      {"variant": "U13G A37U U55A C57A C76U G86A U127C", "polymerase ribozyme fitness (log ratio)": "≤ -4.2"},
      {"variant": "U13C A49C C93A", "polymerase ribozyme fitness (log ratio)": "≤ -4.2"},
      {"variant": "C14G C93U", "polymerase ribozyme fitness (log ratio)": -3.66},
      {"variant": "U13G C75G", "polymerase ribozyme fitness (log ratio)": "≤ -4.2"},
      {"variant": "U13G A22G A24U A28G C76U U78A C79G G81A U102G C114A", "polymerase ribozyme fitness (log ratio)": "≤ -4.2"},
      {"variant": "A12U G58U A60U G86C A107U G133U C149G", "polymerase ribozyme fitness (log ratio)": "≤ -4.2"},
      {"variant": "C14U A19G G94A A106G C131G", "polymerase ribozyme fitness (log ratio)": "≤ -4.2"},
      {"variant": "C14A A17C C93U C116G", "polymerase ribozyme fitness (log ratio)": -2.99},
      {"variant": "C14A A20U A60G A66U C93G", "polymerase ribozyme fitness (log ratio)": "≤ -4.2"},
      {"variant": "C14G A26G U56G A73U G143A", "polymerase ribozyme fitness (log ratio)": "≤ -4.2"},
      {"variant": "A12U U53A G141U", "polymerase ribozyme fitness (log ratio)": -1.08},
      {"variant": "A12G U78G A89G C95U U109C U145C A150G", "polymerase ribozyme fitness (log ratio)": "≤ -4.2"},
      {"variant": "C14G C35A G42C A66G C96G G117U", "polymerase ribozyme fitness (log ratio)": "≤ -4.2"},
      {"variant": "U13G A29U C38G G70U G117U A120U C149U", "polymerase ribozyme fitness (log ratio)": "≤ -4.2"},
      {"variant": "U13G A21U A22C U82G G92U A98C C116U G136A", "polymerase ribozyme fitness (log ratio)": -4.02},
      {"variant": "U13C C76A U82G C85U C118G", "polymerase ribozyme fitness (log ratio)": -2.92},
      {"variant": "C14U A23C U101C U102A U151G", "polymerase ribozyme fitness (log ratio)": "≤ -4.2"},
      {"variant": "C14G A39G U53A C54U C93A", "polymerase ribozyme fitness (log ratio)": "≤ -4.2"},
      {"variant": "C14A U15A G50U A66G U101G C114U C118G G133A A137G", "polymerase ribozyme fitness (log ratio)": "≤ -4.2"},
      {"variant": "C14G A28U G50A A119C A147U", "polymerase ribozyme fitness (log ratio)": "≤ -4.2"},
      {"variant": "C14A A20U C85A U109G", "polymerase ribozyme fitness (log ratio)": "≤ -4.2"},
      {"variant": "A12U A26U G46C C57U C93U C125G U127G A138G", "polymerase ribozyme fitness (log ratio)": "≤ -4.2"},
      {"variant": "C14G A47C C54G U56A C93A C108U G124U G128A", "polymerase ribozyme fitness (log ratio)": "≤ -4.2"},
      {"variant": "C14G G94A A106C G136A", "polymerase ribozyme fitness (log ratio)": -3.64},
      {"variant": "C14G G25A U55A U127C", "polymerase ribozyme fitness (log ratio)": "≤ -4.2"},
      {"variant": "A12U C32G G100A C129A U144G", "polymerase ribozyme fitness (log ratio)": "≤ -4.2"},
      {"variant": "U13A A22U A41C U53G", "polymerase ribozyme fitness (log ratio)": -2.31},
      {"variant": "U13G A30C C85A", "polymerase ribozyme fitness (log ratio)": "≤ -4.2"},
      {"variant": "U13G G46A G83A U101A U134A U135C", "polymerase ribozyme fitness (log ratio)": "≤ -4.2"},
      {"variant": "U13G A21C C27A U55A C99A C103G", "polymerase ribozyme fitness (log ratio)": "≤ -4.2"},
      {"variant": "A12G U144G", "polymerase ribozyme fitness (log ratio)": 0.592},
      {"variant": "A12U A39U U53G G126U", "polymerase ribozyme fitness (log ratio)": -4.09},
      {"variant": "A12U C18U A47G C85A C93A A98C A121U", "polymerase ribozyme fitness (log ratio)": "≤ -4.2"},
      {"variant": "C14A G68U C76A C99U G100A", "polymerase ribozyme fitness (log ratio)": "≤ -4.2"},
      {"variant": "C14A G94U A107G", "polymerase ribozyme fitness (log ratio)": "≤ -4.2"},
      {"variant": "A12U C35G C36G U55G G86U", "polymerase ribozyme fitness (log ratio)": "≤ -4.2"},
      {"variant": "U13A A21C U56A A60G G92U U102A C114U C123U", "polymerase ribozyme fitness (log ratio)": -3.84},
      {"variant": "C14G A24U A30U U44A C54A C87U G112U", "polymerase ribozyme fitness (log ratio)": -4.11},
      {"variant": "C14A A73G G86A A98U", "polymerase ribozyme fitness (log ratio)": -3.58},
      {"variant": "A12U A39G C95U", "polymerase ribozyme fitness (log ratio)": -2.3},
      {"variant": "C14G G83A G117U U127G", "polymerase ribozyme fitness (log ratio)": "≤ -4.2"},
      {"variant": "A12U A122U A147C", "polymerase ribozyme fitness (log ratio)": -0.484},
      {"variant": "C14G A24C A26U C36A A73G A107U A119U U144A", "polymerase ribozyme fitness (log ratio)": "≤ -4.2"},
      {"variant": "U13G A21U C96U G133C A147C", "polymerase ribozyme fitness (log ratio)": -4.05},
      {"variant": "C14G G58A", "polymerase ribozyme fitness (log ratio)": -2.24},
      {"variant": "U13A A98U U148G", "polymerase ribozyme fitness (log ratio)": "≤ -4.2"},
      {"variant": "C14A G94A", "polymerase ribozyme fitness (log ratio)": -1.67},
      {"variant": "C14U A22U A41U A120C", "polymerase ribozyme fitness (log ratio)": -3.1},
      {"variant": "U13G C85U A106G G126U G140C", "polymerase ribozyme fitness (log ratio)": -3.96},
      {"variant": "A12U G42C C72G C76A A91U A120U U144C", "polymerase ribozyme fitness (log ratio)": "≤ -4.2"},
      {"variant": "U13G C36A G83U C99A G140U", "polymerase ribozyme fitness (log ratio)": -4},
      {"variant": "U13C U61C C85U A89C U144A", "polymerase ribozyme fitness (log ratio)": "≤ -4.2"},
      {"variant": "C14G A29G A60G G94C C99U C114U", "polymerase ribozyme fitness (log ratio)": "≤ -4.2"},
      {"variant": "C14A A17U A21G C54U A60G", "polymerase ribozyme fitness (log ratio)": -3.75},
      {"variant": "A12U A47G C76A C85G", "polymerase ribozyme fitness (log ratio)": -3.78},
      {"variant": "A12U A17U C18U G34A A64G C87G", "polymerase ribozyme fitness (log ratio)": "≤ -4.2"},
      {"variant": "C14G A19G C54U C76G U82G A119G G128C U134C", "polymerase ribozyme fitness (log ratio)": "≤ -4.2"},
      {"variant": "A12U C96U", "polymerase ribozyme fitness (log ratio)": -0.566},
      {"variant": "U13A U53A C63G A97U U102G A142C", "polymerase ribozyme fitness (log ratio)": "≤ -4.2"},
      {"variant": "A12U U109G", "polymerase ribozyme fitness (log ratio)": -2.25},
      {"variant": "A12U A49U C54G C93G", "polymerase ribozyme fitness (log ratio)": "≤ -4.2"},
      {"variant": "A12U C51G G88C C108G G117C", "polymerase ribozyme fitness (log ratio)": "≤ -4.2"},
      {"variant": "A12U G50A U53A C87U G136A", "polymerase ribozyme fitness (log ratio)": "≤ -4.2"},
      {"variant": "A12U A17C A22C A142C", "polymerase ribozyme fitness (log ratio)": -2.44},
      {"variant": "C14G A39U C57G", "polymerase ribozyme fitness (log ratio)": -4.06},
      {"variant": "U13G A24U A28U A29U C54U C69A C76G G94U A97C U135C", "polymerase ribozyme fitness (log ratio)": "≤ -4.2"},
      {"variant": "C14G C38A A52C C57A G62A G83A A89C C96G A110C", "polymerase ribozyme fitness (log ratio)": -3.85},
      {"variant": "C14A C87A A97U G143A", "polymerase ribozyme fitness (log ratio)": "≤ -4.2"},
      {"variant": "A12U C93U A97U C103U C105U G133U", "polymerase ribozyme fitness (log ratio)": "≤ -4.2"},
      {"variant": "C14G A30C G50A C76U C87A A107G U111C A120U", "polymerase ribozyme fitness (log ratio)": "≤ -4.2"},
      {"variant": "U13G G86U", "polymerase ribozyme fitness (log ratio)": -3.56},
      {"variant": "C14A U82A G92A", "polymerase ribozyme fitness (log ratio)": "≤ -4.2"},
      {"variant": "A12U C43U C63U U90C C105G G140A", "polymerase ribozyme fitness (log ratio)": "≤ -4.2"},
      {"variant": "U13G G42A U56G G86U G133C G143U U146C", "polymerase ribozyme fitness (log ratio)": "≤ -4.2"},
      {"variant": "C14G A29G U33C A37U U111G G124U U134A", "polymerase ribozyme fitness (log ratio)": "≤ -4.2"}
    ]}
  ]
}
